Test results from paper PMC3517013.

What was measured:
purified protein [1] = substrate: OCC1=C[C@H](N[C@H]2C[C@H](CO)[C@@H](O[C@@H]3O[C@H](CO)[C@@H](O)[C@H](O)[C@H]3O)[C@H](O)[C@H]2O)[C@H](O)[C@@H](O)[C@@H]1O; test: purified protein; assay type: biochemical, Streptomyces hygroscopicus; conditions: apparent; co-substrate α-ketoglutarate, Fe(II); hydroxylation at C-6'
purified protein [2] = substrate: O=C(O)CCC(=O)C(=O)O; test: purified protein; assay type: biochemical, Streptomyces hygroscopicus; conditions: apparent; co-substrate validamycin A, Fe(II)

B1: VldW (Streptomyces hygroscopicus subsp. limoneus) (protein)
chain: MTGSVPIVDLEAWRAADEENRASLAEIIDGALHTVGTFLLAGHGVPAELTARMRTAGRSFFDLPWEKKEPHAVQRPHDNGWRGLVKHRTDTIEGTGGAPDLHEAFHMGPTHRTGDDAFDALYYPANKWPAELPELRETALAYTAHMTRVAGAVMEMLAGVLGLEPAFFTSRCEHATWTQSVNWYPSLDTVGQTAEGQMRVGPHTDFGTITLLDRQQGVSGLEVWSEEDGWFAPPFVEGTLLVNLGDLMHQWTDGRWRSLRHRVLAPSASAPQEELVSLVYFFDADPEAELVPLAAPVGGGAGMPTVNVGETILKKNIQMLTDLKGHGLFQGELSLSRPGSADSPGSSPADDHPSRPGRHPAQGPQ
Km (purified protein [1]): 303 ± 36 µM | kcat (purified protein [1]): 0.0162 ± 0.00233 s⁻¹ | Km (purified protein [2]): 19 ± 3.5 µM | kcat (purified protein [2]): 0.0162 ± 0.00233 s⁻¹
